# Data from article PMC9482650, “Quantitative fragmentomics allow affinity mapping of interactomes” (Nature Communications, 2022).
# T1: DFNB31_3, Q9P202
# T1 sequence (Q9P202 811-907, limits assumed, looked up): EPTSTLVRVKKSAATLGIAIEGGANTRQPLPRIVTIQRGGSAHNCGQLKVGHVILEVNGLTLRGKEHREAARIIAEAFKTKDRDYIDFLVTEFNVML
# T2: SNTB1, Q13884
# T2 sequence (Q13884 107-205, limits assumed, looked up): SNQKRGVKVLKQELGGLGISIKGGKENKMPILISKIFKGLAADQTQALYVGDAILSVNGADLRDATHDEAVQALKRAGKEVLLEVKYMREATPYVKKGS
# T3: SNTA1, Q13424
# T3 sequence (Q13424 82-180, limits assumed, looked up): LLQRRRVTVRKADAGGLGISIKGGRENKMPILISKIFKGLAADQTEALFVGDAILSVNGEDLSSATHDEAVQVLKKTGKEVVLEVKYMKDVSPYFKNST
# T4: HTRA3, P83110
# T4 sequence (P83110 354-453, limits assumed, looked up): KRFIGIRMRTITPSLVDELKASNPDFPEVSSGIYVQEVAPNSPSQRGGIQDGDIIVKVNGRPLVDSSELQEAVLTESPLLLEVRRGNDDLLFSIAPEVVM
# T5: LRRC7, Q96NW7
# T5 sequence (Q96NW7 1440-1537, limits assumed, looked up): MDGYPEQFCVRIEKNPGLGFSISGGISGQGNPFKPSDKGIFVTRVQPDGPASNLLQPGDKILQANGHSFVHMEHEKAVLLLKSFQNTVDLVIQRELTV
# T6: CARD11, Q9BXL7
# T6 sequence (Q9BXL7 662-765, limits assumed, looked up): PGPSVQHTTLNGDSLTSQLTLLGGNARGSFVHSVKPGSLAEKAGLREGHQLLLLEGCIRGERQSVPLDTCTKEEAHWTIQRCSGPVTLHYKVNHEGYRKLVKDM
# T7: GRIP1_4, Q9Y3R0
# T7 sequence (Q9Y3R0 467-571, limits assumed, looked up): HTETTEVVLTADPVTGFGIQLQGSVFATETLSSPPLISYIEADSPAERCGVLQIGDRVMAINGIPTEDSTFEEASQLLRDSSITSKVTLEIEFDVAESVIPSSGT
# T8: TIAM2, Q8IVF5
# T8 sequence (Q8IVF5 885-986, limits assumed, looked up): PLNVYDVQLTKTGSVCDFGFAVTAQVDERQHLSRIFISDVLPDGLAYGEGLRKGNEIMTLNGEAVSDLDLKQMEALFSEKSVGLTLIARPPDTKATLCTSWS
# T9: RHPN1, Q8TCX5
# T9 sequence (Q8TCX5 508-602, limits assumed, looked up): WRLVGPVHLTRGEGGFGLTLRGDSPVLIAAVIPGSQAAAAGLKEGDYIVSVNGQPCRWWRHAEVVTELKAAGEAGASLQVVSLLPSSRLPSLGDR
# T10: NHERF3_3, Q5T2W1
# T10 sequence (Q5T2W1 238-333, limits assumed, looked up): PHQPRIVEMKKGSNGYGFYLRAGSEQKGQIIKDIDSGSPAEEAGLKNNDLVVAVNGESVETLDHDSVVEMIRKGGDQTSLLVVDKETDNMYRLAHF
# T11: GRIP1_7, Q9Y3R0
# T11 sequence (Q9Y3R0 999-1096, limits assumed, looked up): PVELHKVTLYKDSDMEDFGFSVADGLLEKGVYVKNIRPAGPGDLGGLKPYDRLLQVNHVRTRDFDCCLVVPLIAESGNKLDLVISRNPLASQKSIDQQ
# Legend:
# Assay in all cases: holdup assay
# Design in all cases: key: below the threshold = too weak to quantify, mostly under pKd 3.1 to 4
# [1] = target: Inadl_2, Q8NI35
# Inadl_2, Q8NI35, sequence (Q8NI35 238-335): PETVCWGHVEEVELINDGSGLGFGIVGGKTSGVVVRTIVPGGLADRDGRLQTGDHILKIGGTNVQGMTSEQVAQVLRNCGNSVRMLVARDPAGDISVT
# [2] = target: GRASP, Q7Z6J2
# GRASP, Q7Z6J2, sequence (Q7Z6J2 96-193): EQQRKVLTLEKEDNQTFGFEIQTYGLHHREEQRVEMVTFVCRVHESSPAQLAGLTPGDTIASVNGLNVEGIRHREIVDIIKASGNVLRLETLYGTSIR
# [3] = target: T1, DFNB31_3, Q9P202
# [4] = target: T2, SNTB1, Q13884
# [5] = target: GRIP2_6, Q9C0E4
# GRIP2_6, Q9C0E4, sequence (Q9C0E4 648-740): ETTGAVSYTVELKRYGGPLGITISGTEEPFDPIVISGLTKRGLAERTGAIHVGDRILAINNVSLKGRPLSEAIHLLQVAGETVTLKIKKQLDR
# [6] = target: T3, SNTA1, Q13424
# [7] = target: T4, HTRA3, P83110
# [8] = target: T5, LRRC7, Q96NW7
# [9] = target: Inadl_6, Q8NI35
# Inadl_6, Q8NI35, sequence (Q8NI35 1058-1167): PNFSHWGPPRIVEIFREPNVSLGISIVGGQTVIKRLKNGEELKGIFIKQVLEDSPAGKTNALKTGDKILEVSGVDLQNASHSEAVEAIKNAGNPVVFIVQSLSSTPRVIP
# [10] = target: T6, CARD11, Q9BXL7
# [11] = target: FRMPD2_3, Q68DX3
# FRMPD2_3, Q68DX3, sequence (Q68DX3 1073-1166): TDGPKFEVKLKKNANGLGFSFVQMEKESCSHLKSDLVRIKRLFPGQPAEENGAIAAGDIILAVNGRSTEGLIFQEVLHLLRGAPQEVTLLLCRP
# [12] = target: GORASP1, Q9BQQ3
# GORASP1, Q9BQQ3, sequence (Q9BQQ3 1-208): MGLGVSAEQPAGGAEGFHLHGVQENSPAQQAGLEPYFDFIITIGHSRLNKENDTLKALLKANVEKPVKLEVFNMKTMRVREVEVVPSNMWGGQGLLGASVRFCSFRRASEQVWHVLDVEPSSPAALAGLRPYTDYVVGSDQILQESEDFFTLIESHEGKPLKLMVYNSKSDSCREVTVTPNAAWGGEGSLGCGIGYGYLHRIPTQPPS
# [13] = target: GOPC, Q9HD26
# [14] = target: SNX27, Q96L92
# [15] = target: SCRIB_1, Q14160
# SCRIB_1, Q14160, sequence (Q14160 718-814): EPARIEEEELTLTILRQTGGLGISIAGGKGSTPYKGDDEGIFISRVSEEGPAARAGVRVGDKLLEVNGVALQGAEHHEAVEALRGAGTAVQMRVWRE
# [16] = target: DLG2_3, Q15700
# [17] = target: DLG1_3, Q12959
# DLG1_3, Q12959, sequence (Q12959 457-571): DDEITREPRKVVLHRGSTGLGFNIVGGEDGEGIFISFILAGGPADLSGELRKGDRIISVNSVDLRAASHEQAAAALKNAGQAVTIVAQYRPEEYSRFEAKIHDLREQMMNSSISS
# [18] = target: T7, GRIP1_4, Q9Y3R0
# [19] = target: T8, TIAM2, Q8IVF5
# [20] = target: T9, RHPN1, Q8TCX5
# [21] = target: GRIP2_4, Q9C0E4
# GRIP2_4, Q9C0E4, sequence (Q9C0E4 446-548): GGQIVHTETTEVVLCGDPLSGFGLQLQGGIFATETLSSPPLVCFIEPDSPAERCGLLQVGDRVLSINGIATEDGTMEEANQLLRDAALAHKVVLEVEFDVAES
# [22] = target: T10, NHERF3_3, Q5T2W1
# [23] = target: IL16_3, Q14005
# IL16_3, Q14005, sequence (Q14005 1107-1207): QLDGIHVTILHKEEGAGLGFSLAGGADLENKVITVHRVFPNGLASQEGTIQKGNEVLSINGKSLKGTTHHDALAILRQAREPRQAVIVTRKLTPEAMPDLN
# [24] = target: T11, GRIP1_7, Q9Y3R0
# [25] = target: MAGI3_2, Q5TCQ9
# MAGI3_2, Q5TCQ9, sequence (Q5TCQ9 398-503): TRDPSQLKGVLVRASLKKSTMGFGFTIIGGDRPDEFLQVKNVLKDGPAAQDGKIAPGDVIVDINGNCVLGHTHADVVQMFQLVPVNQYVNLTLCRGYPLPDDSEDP
# [26] = target: Inadl_10, Q8NI35
# Inadl_10, Q8NI35, sequence (Q8NI35 1673-1763): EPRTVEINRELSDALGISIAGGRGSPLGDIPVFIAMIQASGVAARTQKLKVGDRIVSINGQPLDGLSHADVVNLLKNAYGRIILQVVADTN
# [27] = plain residues with an end cap or a label only (N-terminal biotin on a linker: ado-ado)
# [28] = plain residues with an end cap or a label only (N-terminal biotin on a linker: (peg)3)
# [29] = plain residues with an end cap or a label only (N-terminal biotin on a linker: ahx)
binder,measurement,setting,value
"EIPAQSPTCV [FZD10, Q9ULW2]",pKd,[1]; [27],3.58
same,pKd,[2]; [27],4.22
same,pKd,[3]; [27],below the threshold
same,pKd,[4]; [27],3.75
same,pKd,[5]; [27],3.74
same,pKd,[6]; [27],3.83
same,pKd,[7]; [27],3.95
same,pKd,[8]; [27],below the threshold
same,pKd,[9]; [27],3.7
same,pKd,[10]; [27],3.56
same,pKd,[11]; [27],3.77
same,pKd,[12]; [27],3.85
same,pKd,[13]; [27],3.94
same,pKd,[14]; [27],4.08
same,pKd,[15]; [27],3.81
same,pKd,[16]; [27],below the threshold
same,pKd,[17]; [27],4
same,pKd,[18]; [27],3.64
same,pKd,[19]; [27],3.7
same,pKd,[20]; [27],below the threshold
same,pKd,[21]; [27],below the threshold
same,pKd,[22]; [27],3.57
same,pKd,[23]; [27],below the threshold
same,pKd,[24]; [27],3.67
same,pKd,[25]; [27],4.12
same,pKd,[26]; [27],3.55
"RYEDTTLVEDTVL [WNV-NS5, Q9Q6P4]",pKd,[1]; [28],below the threshold
same,pKd,[2]; [28],3.9
same,pKd,[3]; [28],below the threshold
same,pKd,[4]; [28],4.27
same,pKd,[5]; [28],below the threshold
same,pKd,[6]; [28],4.14
same,pKd,[7]; [28],below the threshold
same,pKd,[8]; [28],3.49
same,pKd,[9]; [28],below the threshold
same,pKd,[10]; [28],below the threshold
same,pKd,[11]; [28],below the threshold
same,pKd,[12]; [28],3.77
same,pKd,[13]; [28],3.71
same,pKd,[14]; [28],5.38
same,pKd,[15]; [28],3.95
same,pKd,[16]; [28],below the threshold
same,pKd,[17]; [28],3.51
same,pKd,[18]; [28],below the threshold
same,pKd,[19]; [28],below the threshold
same,pKd,[20]; [28],4.41
same,pKd,[21]; [28],below the threshold
same,pKd,[22]; [28],below the threshold
same,pKd,[23]; [28],below the threshold
same,pKd,[24]; [28],below the threshold
same,pKd,[25]; [28],3.5
same,pKd,[26]; [28],below the threshold
"QPRTWLQSPV [RTKN, Q9BST9]",pKd,[1]; [29],below the threshold
same,pKd,[2]; [29],3.9
same,pKd,[3]; [29],below the threshold
same,pKd,[4]; [29],below the threshold
same,pKd,[5]; [29],below the threshold
same,pKd,[6]; [29],below the threshold
same,pKd,[7]; [29],below the threshold
same,pKd,[8]; [29],3.73
same,pKd,[9]; [29],below the threshold
same,pKd,[10]; [29],below the threshold
same,pKd,[11]; [29],below the threshold
same,pKd,[12]; [29],below the threshold
same,pKd,[13]; [29],4.07
same,pKd,[14]; [29],4.31
same,pKd,[15]; [29],3.69
same,pKd,[16]; [29],3.62
same,pKd,[17]; [29],4.11
same,pKd,[18]; [29],below the threshold
same,pKd,[19]; [29],below the threshold
same,pKd,[20]; [29],3.7
same,pKd,[21]; [29],below the threshold
same,pKd,[22]; [29],below the threshold
same,pKd,[23]; [29],below the threshold
same,pKd,[24]; [29],below the threshold
same,pKd,[25]; [29],4.53
same,pKd,[26]; [29],below the threshold
